Results from patent US20040005669A1 (CREATIVE PEPTIDES SWEDEN, published 2004).
One block for each binder: values may come before it.

How the values were obtained:
[1] = molecular target: rabbit anti-human C-peptide antiserum; assay: competitive radioimmunoassay against labelled C-peptide tracer; expected concentration 3.31 nM
[2] = molecular target: T1, human serum albumin (HSA), immobilised on Sepharose (human, UniProt P02768 25-609); assay: affinity chromatography on HSA-Sepharose
T1 construct: also called HSA-Sepharose; human-serum-albumin (HSA)-Sepharose
T1 sequence (P02768 25-609 limits assumed): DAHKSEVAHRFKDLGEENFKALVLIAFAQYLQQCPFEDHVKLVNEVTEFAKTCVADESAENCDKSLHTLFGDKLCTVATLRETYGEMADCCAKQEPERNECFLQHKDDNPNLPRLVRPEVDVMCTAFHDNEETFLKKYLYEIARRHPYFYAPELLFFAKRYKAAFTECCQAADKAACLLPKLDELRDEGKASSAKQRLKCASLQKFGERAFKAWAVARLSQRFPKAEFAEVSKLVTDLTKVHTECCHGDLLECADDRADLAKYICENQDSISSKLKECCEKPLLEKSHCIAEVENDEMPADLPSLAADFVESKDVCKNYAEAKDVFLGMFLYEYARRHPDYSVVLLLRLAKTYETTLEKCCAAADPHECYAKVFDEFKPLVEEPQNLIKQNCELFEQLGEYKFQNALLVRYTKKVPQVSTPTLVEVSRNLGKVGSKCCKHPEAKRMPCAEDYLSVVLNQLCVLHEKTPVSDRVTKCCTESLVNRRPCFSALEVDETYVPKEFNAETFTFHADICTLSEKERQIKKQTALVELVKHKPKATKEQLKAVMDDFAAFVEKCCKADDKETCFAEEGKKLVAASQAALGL
Description: E. coli cells harbouring pTrpBB-C3 and pTrpBB-C7, and thus encoding the fusion proteins BB-C3 and BB-C7, respectively, were grown overnight at 37° C. in shake-flasks containing 10 ml Tryptic Soy Broth (Difco, USA) (30 g/l) supplemented with yeast extract (Difco) (5 g/l) and kanamycin monosulfate (50 mg/l). The overnight cultures were diluted 10-fold to 100 ml into baffled shake-flasks having the same type of media and grown at 37° C. Gene expression was induced at mid-log phase (A_{600 nm}≅1) by the addition of β-indole acrylic acid to 25 mg/l. Cells were harvested 20 hours after induction, by centrifugation at approximately 6000 g for 10 min. Cells were resuspended in 1/20 of the culture volume in TST (50 mM Tris-HCl pH 8.0. 200 mM NaCl, 0.05% Tween 20, 1 mM EDTA), lysed by sonication and centrifuged at approximately 40,000 g. The samples for the sonication were prepared by sedimenting the shake-flask culture by centrifugation, and thereafter resuspending the cells in 30 ml of cold TST buffer. The samples were stored on ice during a 2 minute pulsed sonication which was performed on a Sonics and Materials Inc. (Danbury, Conn., USA) Vibra Cell (500 W) using a 13 mm standard horn tip, a 70% duty cycle (20 kHz) and with the output control set to 6.5. […] Eluted fractions were monitored for protein content by absorbance measurement at 280 nm and relevant fractions were lyophilised.

Assayed concentration [1]: 2.34 nM
Assayed concentration as percent of expected [1]: 71%
Binder: EAEDLQVGQVELGGGPGAGSLQPLALEGSLQ [Insulin C-peptide (from cleavage of fusion protein BB-C7)]

binding result [2]: binds
B1: BB-C7 fusion protein (other)
chain: MKAIFVLNAQHDEAVDANFDQFNKYGVSDYYKNLINNAKTVEGVKDLQAQVVESAKKARISEATDGLSDFLKSQTPAEDTVKSIELAEAKVLANRELDKYGVSDYHKNLINNAKTVEGVKDLQAQVVESAKKARISEATDGLSDFLKSQTPAEDTVKSIELAEAKVLANRELDKYGVSDYYKNLINNAKTVEGVKALIDEILAALPKTDTYKLILNGKTLKGETTTEAVDAATARSFNFPILENSSSVPASQAREAEDLQVGQVELGGGPGAGSLQPLALEGSLQRTASQAREAEDLQVGQVELGGGPGAGSLQPLALEGSLQRTASQAREAEDLQVGQVELGGGPGAGSLQPLALEGSLQRTASQAREAEDLQVGQVELGGGPGAGSLQPLALEGSLQRTASQAREAEDLQVGQVELGGGPGAGSLQPLALEGSLQRTASQAREAEDLQVGQVELGGGPGAGSLQPLALEGSLQRTASQAREAEDLQVGQVELGGGPGAGSLQPLALEGSLQRTASQAVD
notes: Expressed in E. coli from pTrpBB-C7; 54.2 kDa; also called peptide product comprising the fusion partner BB and seven copies of the insulin C-peptide

binding result [2]: binds
B2: BB-C3 fusion protein (other)
chain: MKAIFVLNAQHDEAVDANFDQFNKYGVSDYYKNLINNAKTVEGVKDLQAQVVESAKKARISEATDGLSDFLKSQTPAEDTVKSIELAEAKVLANRELDKYGVSDYHKNLINNAKTVEGVKDLQAQVVESAKKARISEATDGLSDFLKSQTPAEDTVKSIELAEAKVLANRELDKYGVSDYYKNLINNAKTVEGVKALIDEILAALPKTDTYKLILNGKTLKGETTTEAVDAATARSFNFPILENSSSVPASQAREAEDLQVGQVELGGGPGAGSLQPLALEGSLQRTASQAREAEDLQVGQVELGGGPGAGSLQPLALEGSLQRTASQAREAEDLQVGQVELGGGPGAGSLQPLALEGSLQRTASQAVD
notes: Expressed in E. coli from pTrpBB-C3; 39.1 kDa
